Assay results published in PMC5352143, “Lactoferrin binding protein B – a bi-functional bacterial receptor protein” (PLoS Pathogens, 2017).

Molecular target: T1, holo human lactoferrin (iron-loaded hLf) (human)
T1 construct: human lactoferrin, iron-loaded (holo) form; Iron-loaded form; also called holo-hLf; holo-Lf; source: bought: Agennix (named for XL-MS)
Assay: BLI; Octet RED 96; biotinylated MBP-LbpB constructs loaded from crude E. coli extracts on streptavidin sensors; holo-hLf 10-800 nM in 1 X PBS pH 7.4, 0.002% Tween-20, 0.1 mg/mL BSA; steady-state fit, apparent KD
Settings: one partner purified

B1: LbpB C-terminal lobe with N-terminal biotin acceptor peptide, fused to MBP (BLI construct) (domain or fragment)
chain: ENAADTKPALSSGKHTKILDSLKISVDEASDKNPREFAISSMPDFGHPDKLLVEGREIPLVNKEQTIELADGRKTTIRTCCDFLTYVKIGRMQTERPAAKPKAQDEERDEEDTGVDSVEEGEDEIDDEEGTEDAAVKDEGSEEDEAVEGEDEAEEPEEESPTEEGGSGSDGILPAPEAPKGRNIDLFLKGIRTAETDIPKTGEAHYTGTWEARIGKPIQWDNQADKEAAKAVFTVDFGKKSISGTLTEENGVEPAFHIENGKIEGNGFYATARTRENGINLSGNGSTDPKTFQASNLRVEGGFYGPQAEELGGIIFNNDGKSLGITEGTENKVDVEAEVDAEVDVGKQLESEVKHQFGVVFGAKKDMQEVEK
modifications: biotin on the biotin acceptor peptide
Kd: 279 ± 15 nM
